The values below come from publication PMC3855555.

Holding throughout (test): pyrophosphate release, enzyme-coupled colorimetric assay
Assay type in all cases: biochemical, Mycolicibacterium smegmatis
Settings in all cases: 20 mM Tris-HCl pH 7.5, 5 mM MgSO4, 100 mM NaCl, 37°C

Substrate in data set [1]: Nc1nc(=O)n([C@H]2C[C@H](O)[C@@H](COP(=O)(O)OP(=O)(O)OP(=O)(O)O)O2)cc1O
Substrate in data set [2]: Nc1nc(O)nc2c1ncn2[C@H]1C[C@H](O)[C@@H](COP(=O)(O)OP(=O)(O)OP(=O)(O)O)O1
Substrate in data set [3]: O=Cc1cn([C@H]2C[C@H](O)[C@@H](COP(=O)(O)OP(=O)(O)OP(=O)(O)O)O2)c(=O)[nH]c1=O

B1: Msm MazG (Mycolicibacterium smegmatis MC2 155) (protein)
chain: MIVVLVDPRRPALVPVDAVEFLTGDVQYTEEMPVKVPWSLPSARPAYDGEDAPVLLSSDPEHPVVKARLAAGDRLIAAPEPQPGERLVDAVALMDKLRTSGPWESEQTHDSLRRYLLEETYELFDAVRSGNADELREELGDVLLQVLFHARIAEDAPHHPFSIDDVADALVRKLGNRVPAVLAGESISLDEQLAQWEERKAQEKKVKARASSMDDVPTGQPALALAQKVLARVSQAGLPAELIPASLTSVSVSADTDSENELRTAVLEFMDTVREVEAAVAAGRRGEDVPEELDVAPLGVISEDEWRAYWPGAESSASEAEPEE
notes: heterologously expressed, purified to nearly SDS-PAGE homogeneity; strain given for the bacteria, not for the protein
Turning to B1, the Km was 5.6 ± 2.2 µM in data set [1], 311 µM in data set [2] and 434 ± 82 µM in data set [3]. Besides, the kcat in data set [1] came out at 0.013 s⁻¹; in data set [3], 1 s⁻¹.

Broadly, the Km is the concentration of substrate that gives half-maximal velocity. A word on the kcat: it is the number of substrate molecules converted per active site and unit of time at saturation.
